{"source": "paper PMC10686230", "about": "(The Journal of Cell Biology, 2023)", "proteins": {"B1": {"name": "SMGL-1 (purified, GST tag cleaved) (natural protein, C. elegans, UniProt P90841 1-1615, looked up)", "chain": "MAHMRGTNHEKEKHDDENSKILLKERYNLLKWLTNVEMRSPNVLIPVQIANYVESLPFCKLAVSPKCDRVAVMSYARQLDIYQISGEILTHESSVQVLEETSPEYCILQFSSSSTLILSSRSTPHIDVFDSMGAYLYDIPLELHEGIFDVNSAICGMQTFENYSSSSNDKFIEILYVLQYSGVFSAFKIGRLSKYVKMWTVQLDIGQTGSFTVLPQYNLLLVASHHKESTSLVPPAGLCSFRMMDMDPFVEPIRISTPDGGFFSRLPFSTSFMSYLPRMSLSFDSQLLVSVSTSGSLYLFEIPSLHVKFSFNFISGPRPVDACFVDSDEIAVIYDNGYLLRCSLEDLEEKMYSVKMRSKKEIDEEPELKDFYSEQTVMVSPAQREIFLLTADGDNSFLRKAAHKRVQLAGQLWFYTVWNSLKKLVGMAMGEPAEQLHFETHIAKFEFSLIHSPTRTLQELFDRTLKEHDYTRARELAETYDTIDIYVVLKSEWIDKCSKNKVTVEDVEDILKRIGDSEWAAEQCASADSDDFEVHKALIDLGLSLGESSVTWQIRLLHHWRMLEVCRIKGDVDIYMMARNGSCLDAALTFAHNGDIDSLTRIIESNMAVMKHHQKRILSAIPTCTSPTKYEILMPKREDGETEEQWELEEQNDGIYERLDKILMEHPDAESLIRSINVGNIPNEETFDFTSWVRETLPKIDFECGMTDICVNLLQIAYERGYEDLIHDLATWQPYAQYIRICSSVSESITSFQDSTMKSFTDRFSRLLDSELIKNAKDIVSLIEWKIKMTSSDSEESIEDRLRDAVTTLMKATNERTTKVLVAFRNELPSVVDDHVILEVLLNMTSTGADLMKSLGDLPVDKYVNVTSSLGSLMSRGVKMTFKSIFESMKEPDGARRVLIKLSRSGNCSNFDDWMSLRDDIYDMANGIYEDLVTTEEALEIFAGEILEEERIGSHPELMELVLTLNPKEDNSNPRKLSIAKSADVLLSKSDELMNEATQRGDPLLGRSRFFAVAARPISPKKSKEKLDWLDAIDAALELGCTMMPIAIKFCEHDSLLRDVVGLGSNYKQGKKILSFAKQLNIDTPIATALSYCALAALNANDAVYLSKYIGEVMKAKGVPVVHKLCMQIMNSSHVPTDMEDVYSCAVLNSSEENLLDTVDAIASSEKRLSESRRCREIRLDDIPVSEAVVGDPMYTPMRLYNARKEISGDVKQKITFYGKRNLWETNYGKREGFDVMKRLYAHESSTVALCFSLFEPAENVETGELSWTKNDKLRRYERGLRFFQDRVPLSDLVTAPASAIINEANKGDASITAIDRIEDYGCDRRRFIGDAEYRTETIIGLAGTENEQIFADALELAEKYEIDEWKLHMASLEYLLDPSYNVPIIDVKQIMKSRKHLSKLRTKLDEFHSRLRSMVLPSLETNEQFLSYISLFADAEPEKKLGDTIKKIISKMKNVEAIRLWTDAKYLSSTLNKIPDGNLRAIISSVLQFPKIGVKACEMSAEFLLEGDDTRPPSNPFTLFLLMRSNIEDFLELVANKKSRDDEIAYLDQAVILLENTPKVPPLLLDAIKMRSEKMHRATVTPEPATPSNGSSTGLSSYFSNTEDNSGMMKRRKN"}}, "molecular_target": "the molecule itself", "experiment": "SEC + SEC-MALS"}
{"protein": "B1", "values": [{"measurement": "stoichiometry N", "result": 4}]}
